The values below come from the supplement of paper PMC12764529.

± gives the half width of the 95% confidence interval.

A short description of data set [1]: folding stability dG unfold from trypsin proteolysis; higher = more stable. In short, it runs like this: (§1)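 Mini-proteins designed to be under 80 residues and free of cysteine were carried in a PA-tagged cDNA display construct and digested with trypsin and with chymotrypsin. Each protease was applied at 11 threefold-diluted concentrations, alongside a no-protease condition, before sequencing. K50 came from Bayesian fitting of the sequencing counts, and unfolding free energy was obtained by comparing it with a sequence-predicted unfolded-state K50 and a shared folded-state K50, for each protease separately or for both together. Designs were retained only if their AlphaFold2 dimer inter-PAE exceeded 15.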

Data set [2] can be described thus: folding stability dG unfold from chymotrypsin proteolysis; higher = more stable. The gist of the method: as §1
A short description of data set [3]: folding stability dG unfold (combined trypsin and chymotrypsin); higher = more stable. In short, it runs like this:
as §1

With “GPPLPVEVDAEVDVVPLPGGPALVVRRPVRFPVTRRIVVVEVVRLPDGSVVARVDVYDPGDGRPRTFTLPLS [r1_261_TrMRF]”, the “folding stability dG unfold” value in data set [1] stood at 0.795 ± 0.04 kcal/mol; in data set [2] it was 2.373 ± 0.021 kcal/mol; in data set [3], 1.9 ± 0.043 kcal/mol.
The matching figures for “GSEIKAGRARSSDGTGRIRVVLEREDGSSVEFELDLPGLPGDTFYLDLPESLPLKAKETWVYVDDKPYPVTS [r1_70_TrMRF]”: 0.665 ± 0.054 kcal/mol, 1.25 ± 0.037 kcal/mol and 1.08 ± 0.067 kcal/mol.
For the sequence “GVVRPLGDPNGQLSIVATDPEGNLLVKALVPNDEAQVEAAKKELLAAMPGLDEKEVVFSIYDPLTGKTKILS [r1_55_JUSTAS]”, the “folding stability dG unfold” value in data set [1] turned out to be 1.07 ± 0.1 kcal/mol; in data set [2] it was 1.61 ± 0.025 kcal/mol; in data set [3] it was 1.54 ± 0.12 kcal/mol.
For the sequence “GYRPALAVVELGPNSRLLLRPPEGPSVEIEVESPEEALAAALKLLPKDQPLVLEVFDEGKLIETIPIEIPPS [r1_276_TrMRF]”, the “folding stability dG unfold” value worked out at 0.973 ± 0.036 kcal/mol in data set [1], 1.87 ± 0.069 kcal/mol in data set [2] and 1.55 ± 0.095 kcal/mol in data set [3].
The matching figures for “IEEIKNFAKKHGFNVKIEPVKVDSEEEAKEEAEDHEKKNGYPTIIIKNPENGEIVWVIKIRPPPPPPGQPPS [r1_179_TrROS]”: 2.51 ± 0.22 kcal/mol, 3.89 ± 0.17 kcal/mol and 3.18 ± 0.31 kcal/mol.
The matching figures for “IRGMPVEEIKEIARDFFRKHGMKVTTVEIVPTPNGMTQVDIEIEPPDKGRRYRIDIYVPEDGMVQIDIEPYS [r1_460_TrROS]”: 2.23 ± 0.071 kcal/mol, 2.54 ± 0.13 kcal/mol and 2.4 ± 0.24 kcal/mol.
The matching figures for “IVISPSMLRDARRQGIPKELLKKAKNVIIWSSNGNPEWAKELKEWPGVKKIKPVPPGDPDKQKDADHVIHFS [r1_248_TrROS]”: -0.554 ± 0.55 kcal/mol, -0.673 ± 0.49 kcal/mol and -0.482 ± 0.29 kcal/mol.
Regarding “KGVVVGPDEPLVSDDGKLVVFPNAQITYDPKTGKPTIAFHVDPEALAQGDPEALKGLRDLAKELNIDELTPS [r1_438_TrMRF]”, the results for the “folding stability dG unfold” value in data set [1], in data set [2] and in data set [3] were -0.156 ± 0.1 kcal/mol, 1.03 ± 0.044 kcal/mol and 0.692 ± 0.12 kcal/mol, respectively.
In the case of “KIHILPPGEPAKDPNGKTYEFPNMRIHRNPKNGKPTIYIPMDPEARDQGNPEALQWLRELVEELNIDKVEPS [r1_438_TrROS]”, the “folding stability dG unfold” value is -0.623 ± 0.45 kcal/mol in data set [1], 0.0516 ± 0.16 kcal/mol in data set [2] and -0.156 ± 0.16 kcal/mol in data set [3].
The matching figures for “KIWIPNASWSQIKNIIRNAIKDGKERTIWIPMDPNMKPNIIDYLKDLPGIKDVEPYPNGWVKIEIDKAELKS [r1_324_TrROS]”: 2 ± 0.059 kcal/mol, 3.23 ± 0.076 kcal/mol and 2.81 ± 0.18 kcal/mol.
For “KKITIIIPSPDGYWVVIKIEWPNGRPINVFFRSPEELLNEIQRQLGMYPENFEITDIEVMPPDDLKEAMDNS [r1_119_TrROS]”, the “folding stability dG unfold” value came out at 2.77 ± 0.1 kcal/mol in data set [1], 3.39 ± 0.12 kcal/mol in data set [2] and 3.22 ± 0.11 kcal/mol in data set [3].
The matching figures for “KKITVVRPAKTLEEVEQAVRDLLKELNIPEGTKVEVKVEEIPETGAFVATVTVTLPNGEKIEVTVLFPKLFS [r1_84_TrMRF]”: 2.26 ± 0.092 kcal/mol, 2.95 ± 0.081 kcal/mol and 2.68 ± 0.09 kcal/mol.
For the sequence “KKKKPPKVVKVEIKFDKKTKKITVKVDGKTFTITLPDGKKIEITVPAGMSEEEIKALAKKLAKELEEKLKKS [r1_25_TrROS_Hall]”, the “folding stability dG unfold” value in data set [1] came to 3.73 ± 0.12 kcal/mol; in data set [2] it was 1.97 ± 0.2 kcal/mol; in data set [3], 2.18 ± 0.55 kcal/mol.
The matching figures for “KKKTIEIIFPENNLIIKIEVDEETGKELTEEEIKKLLEELFPGKDIEKMSIEEIAKRLASLPGVKKVEIYPS [r1_463_TrROS_Hall]”: 3.19 ± 0.09 kcal/mol, 1.57 ± 0.07 kcal/mol and 2.46 ± 0.1 kcal/mol.
Consider “KKVKIEIEVIHPGPDGWVIRAKVKYPGNNKKKEKPFFFPNPKEFVKEIANELLPKNQLDDVDIEMYPLEEFS [r1_399_TrROS]”, for which the results for the “folding stability dG unfold” value in data set [1], in data set [2] and in data set [3] were 0.973 ± 0.058 kcal/mol, 0.686 ± 0.14 kcal/mol and 0.875 ± 0.15 kcal/mol, respectively.
The matching figures for “KMKTITITVKVPKGMKVVITLANGKKIEIEVESVEDALKKIKKLLPEGAVLRVEVVKDGKVIEEKEIVIKPS [r1_276_TrROS_Hall]”: 2.18 ± 0.071 kcal/mol, 2.96 ± 0.041 kcal/mol and 2.66 ± 0.15 kcal/mol.
The matching figures for “KPKIVEKKEITIKLNGKTIKITLVKNKETGKYYAKIEIFEYDKNGKLVKKETITLEFDSLEDLLEALKKLAS [r1_288_TrROS_Hall]”: 2.14 ± 0.091 kcal/mol, 3.67 ± 0.071 kcal/mol and 3.18 ± 0.4 kcal/mol.
Turning to “KPKLTIEYDEETGKFTITLPDGRKIEIELKKDGTVVRIRVKENGKEREIELTLDELKALLDNKDVTIEIIPS [r1_18_TrROS_Hall]”, the entries for the “folding stability dG unfold” value in data set [1], in data set [2] and in data set [3] were 3.95 ± 0.13 kcal/mol, 3.45 ± 0.2 kcal/mol and 3.81 ± 0.23 kcal/mol, respectively.
The matching figures for “LKITLPDGAEITEITSVSVLPNGTIKITVKVRNPATGETTTVTLTITLKPAPPPEVTIVRDAETGELKLVKS [r1_411_TrROS_Hall]”: 2.63 ± 0.1 kcal/mol, 2.14 ± 0.047 kcal/mol and 2.49 ± 0.23 kcal/mol.
Regarding “MAIVHIDFSFPDGGPTLSFEIPVPNLGPAGEEEILERASELTGISREVIRKNTEIEPIPETGDYKVTINVSS [r1_285_JUSTAS]”, the “folding stability dG unfold” value in data set [1] amounted to 1.46 ± 0.033 kcal/mol; in data set [2] it was 1.14 ± 0.033 kcal/mol; in data set [3] it was 1.36 ± 0.069 kcal/mol.
The matching figures for “MALPERLRELTPPVPPELALEAALKRAEELGLEEVREVRVLSVTPDGYIEVEIELPEGGSVRIRIPLEDLFS [r1_435_TrMRF]”: 1.51 ± 0.071 kcal/mol, 0.608 ± 0.18 kcal/mol and 1.15 ± 0.12 kcal/mol.
The matching figures for “MEEIRDLPGIKWQPIERDGDRYYWMFTIPPEQFKNNGKPPVIVMAEFEPNGKWRITPWIRPWLRKLGIEPVS [r1_256_TrROS]”: 1.92 ± 0.049 kcal/mol, 1.72 ± 0.083 kcal/mol and 1.92 ± 0.091 kcal/mol.
The matching figures for “MEITTTPYTDPNSETTYWLITATLPDGRRITIVITKPAGGPWTVEVYAPDGTRISSKTYSSEEEAIEEALTS [r1_478_JUSTAS]”: 3.3 ± 0.051 kcal/mol, 3.2 ± 0.036 kcal/mol and 3.25 ± 0.052 kcal/mol.
Turning to “MKIVEITKIEKKEDGTITITIKIEPVKKGEKLKIRIIHDGKIYEAEIDAESGTITITLPKNVKELKIYIYPS [r1_428_TrROS_Hall]”, the “folding stability dG unfold” value in data set [1] worked out at 3.21 ± 0.25 kcal/mol; in data set [2] it was 3.46 ± 0.12 kcal/mol; in data set [3], 3.44 ± 0.28 kcal/mol.
As for “MKVIEVPIEGLPVEEIRRVIEEAIEKAKAEGNPDVKIIVTVPGPPELVEATTAVVKEIADKGDVEVSVVALS [r1_387_JUSTAS]”, the results for the “folding stability dG unfold” value in data set [1], in data set [2] and in data set [3] were 3.83 ± 0.36 kcal/mol, 2.82 ± 0.17 kcal/mol and 3.52 ± 0.29 kcal/mol, respectively.
With “MLLEFESEEELEKAIKELIEKAKKEVEEKGKKNEELKINIPVILHDKETGKETTRPITINIKPDGKITILDS [r1_316_JUSTAS]”, the “folding stability dG unfold” value in data set [1] was 0.953 ± 0.13 kcal/mol; in data set [2], 1.05 ± 0.13 kcal/mol; in data set [3], 1.01 ± 0.23 kcal/mol.
The matching figures for “MLLVKAEFTIKNSDGTEETFTVLVEVPESEEEAEEAVEKEIEKIAEEKGLSTENITEIKVEIYPPSEPVKPS [r1_159_JUSTAS]”: 2.1 ± 0.098 kcal/mol, 2.7 ± 0.077 kcal/mol and 2.48 ± 0.081 kcal/mol.
Consider “MLTKVSTLTREDPSTGTTTTITVYKPPDGTLIVKVTTTTYSTTPDGTVTTTTSTTTVTLPPSVDVEKVFSSS [r1_243_JUSTAS]”, for which the “folding stability dG unfold” value in data set [1] was 1.76 ± 0.068 kcal/mol; in data set [2], 3.01 ± 0.056 kcal/mol; in data set [3] it was 2.58 ± 0.12 kcal/mol.
The matching figures for “MLTLPDGRPAFVRARVVLPPGVRVTVVGDIPAEELERRLGRRVTPEDIVRAVVEAARRRGLTVEAVELDLRS [r1_338_TrMRF]”: 1.11 ± 0.013 kcal/mol, 1.02 ± 0.031 kcal/mol and 1.09 ± 0.034 kcal/mol.
Take “MMKVKIEVRNEENEEVLTIELEVPEGEELTEEEILDLIAERLGLSKEELRKRVRIEYDEETKRIRIEIRIES [r1_285_TrROS_Hall]”: the “folding stability dG unfold” value came out at 3.5 ± 0.053 kcal/mol in data set [1], 2.27 ± 0.036 kcal/mol in data set [2] and 2.87 ± 0.08 kcal/mol in data set [3].
The matching figures for “MRTVLLPIAGLPPEQVREAIERAVRAAREAGQPDTTLIVFNPGPAEQVEETTRLVQELADEPDFTVTVIPIS [r1_387_TrMRF]”: 0.685 ± 0.046 kcal/mol, 0.0961 ± 0.12 kcal/mol and 0.382 ± 0.14 kcal/mol.
The matching figures for “MTIEITIVAKTEEEAKEAAEELARKLAEELGLSEEELENLKIEVEKVEVTNEDGEKYYVVKIKIELPPEFKS [r1_81_TrROS_Hall]”: 2.93 ± 0.38 kcal/mol, 3.61 ± 0.25 kcal/mol and 3.25 ± 0.4 kcal/mol.
With “MTITVRFTFQTEEEAEKAAEEVKRKLAEELGLSEEVLKKIPVEVKRTETGSENGEPVYEVTVTFKLPEELLS [r1_81_JUSTAS]”, the “folding stability dG unfold” value in data set [1] was 4.17 ± 0.14 kcal/mol; in data set [2], 4.94 ± 0.084 kcal/mol; in data set [3], 4.84 ± 0.084 kcal/mol.
The matching figures for “MTLEELKAAEGKRLEDVVTVEIVRVERDPETGEEKVVEKRTITFPPGMTLEELKALLESLPAEVRITRVRRS [r1_132_TrROS_Hall]”: 1.85 ± 0.041 kcal/mol, 2.27 ± 0.035 kcal/mol and 2.11 ± 0.11 kcal/mol.
Regarding “MTTRTLTLTVETSSPEEAEAVREKIRAELGRPDVDVEILEVTFSPDGTVTITIRLAPGVPEERVRALLDALS [r1_485_JUSTAS]”, the “folding stability dG unfold” value in data set [1] was found to be 3.37 ± 0.05 kcal/mol; in data set [2], 2.266 ± 0.0084 kcal/mol; in data set [3], 2.79 ± 0.034 kcal/mol.
The matching figures for “MTVELETTDIEELLARIEEAAAAGKNVTVTAKPEEFEKIRAEGFKIDEILEVKPVPGDDTVVTLINISPEGS [r1_173_JUSTAS]”: 1.11 ± 0.038 kcal/mol, 0.699 ± 0.083 kcal/mol and 0.897 ± 0.085 kcal/mol.
